Laboratory results published in publication PMC3750474 (2013).

T1: FIV N-terminal capsid domain (feline immunodeficiency virus (FIV))
T1 chain: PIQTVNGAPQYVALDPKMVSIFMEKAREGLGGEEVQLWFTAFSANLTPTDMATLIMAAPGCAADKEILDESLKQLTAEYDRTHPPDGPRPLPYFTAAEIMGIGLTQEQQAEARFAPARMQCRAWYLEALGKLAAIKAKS

B1: cyclophilin domain from human NUP358 (domain or fragment)
chain: ELSKETNPVVFFDVCADGEPLGRITMELFSNIVPRTAENFRALCTGEKGFGFKNSIFHRVIPDFVCQGGDITKHDGTGGQSIYGDKFEDENFDVKHTGPGLLSMANQGQNTNNSQFVITLKKAEHLDFKHVVFGFVKDGMDTVKKIESFGSPKGSVCRRITITECGQI
B2: NUP358Cyp V61M/V113F (domain or fragment)
chain: ELSKETNPVVFFDVCADGEPLGRITMELFSNIVPRTAENFRALCTGEKGFGFKNSIFHRVIPDFMCQGGDITKHDGTGGQSIYGDKFEDENFDVKHTGPGLLSMANQGQNTNNSQFFITLKKAEHLDFKHVVFGFVKDGMDTVKKIESFGSPKGSVCRRITITECGQI
B3: NUP358Cyp V113F (domain or fragment)
chain: ELSKETNPVVFFDVCADGEPLGRITMELFSNIVPRTAENFRALCTGEKGFGFKNSIFHRVIPDFVCQGGDITKHDGTGGQSIYGDKFEDENFDVKHTGPGLLSMANQGQNTNNSQFFITLKKAEHLDFKHVVFGFVKDGMDTVKKIESFGSPKGSVCRRITITECGQI

Tests used:
[1] = molecular target: T1, FIV N-terminal capsid domain; assay: ITC
[2] = molecular target: HIV-1 M-group (NL4-3) N-terminal capsid domain (HIV-1 M-group (NL4-3)); assay: ITC

Row | Binder | Kd [1] | Kd [2]
1 | B1 | 290 µM | –
2 | B2 | – | 31 µM
3 | B3 | – | 92 µM
